Target: HLA class I-A2 molecule (human) (UniProt P04439)
Experiment: T2 binding assay, peptide 50 µg/ml for 24 h, anti-HLA-A2 mAb, flow cytometry; cut off for positivity 100

T2 binding, relative fluorescence (mean intensity): 51.4
Substance: PSA [42-51] (from UniProt P07288 66-75) (peptide)

— patent publication US6946133
